± gives the uncertainty stated by the source.
Experiment: amyloid nucleation score (Sup35N fusion, yeast selection) (log enrichment); library NNK1; higher = more nucleation; inactive = no reads after selection
Summary of the method: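 Using DiMSum, nucleation scores were taken as the log enrichment of output over input reads, centred on the mode score of non-aggregating sequences. The input and output reads came from Illumina sequencing of plasmid inserts, with sequences under 100 input reads excluded. The yeast were psi-negative, expressed Sup35N fused to peptides of 20 random codons, were induced with 100 μM copper sulfate for 24 hours, and were grown 7 days at 30°C on medium lacking adenine and uracil.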

| Substance | amyloid nucleation score |
| --- | --- |
| FNIIASPSWVSVRNHGNLWV | 4.91 ± 0.062 |
| FNITYCFRSFSTSVDNGF | 0.436 ± 0.55 |
| FNKTSMVSGNQLRVLVLVNI | 1.08 ± 0.59 |
| FNLRTIARDL | -1.68 ± 0.97 |
| FNLSVKAY | -0.581 ± 1.6 |
| FNNPKCHSWLDRMVWLMWLA | 0.343 ± 0.61 |
| FNSRGSVSNL | 0.821 ± 1.1 |
| FNSRTAGCRLSTQMFSRKQT | 0.402 ± 0.92 |
| FNWMRP | 0.706 ± 0.31 |
| FNYLICAVDSRTLNSW | 4.7 ± 0.05 |
| FPDMCILRILYVKVLV | -1.52 ± 1.6 |
| FPYILMKRAKQYALGPRHLL | -0.435 ± 0.32 |
| FQNELCKTDIWFRVREWESE | 0.196 ± 1.2 |
| FRCLRTRSCLQWAQGLGAEA | 0.596 ± 0.47 |
| FRDSTET | 0.495 ± 1.4 |
| FRGFR | -0.235 ± 0.4 |
| FRLLGLTR | 0.087 ± 0.62 |
| FRLMPEYVATYMLSLRMCQC | -0.565 ± 1.2 |
| FRLTLGIVVLLVGK | inactive |
| FRMNRKVRC | 0.082 ± 0.29 |
| FRSAKAIMLEVN | 0.048 ± 0.41 |
| FRSFNGTCSGVQWSVFVIWV | -0.18 ± 0.77 |
| FRSGYRLACSAMSIAFCIYE | 0.341 ± 0.48 |
| FRSLMLLDFTYHVVSGLRYK | -0.609 ± 1.9 |
| FRWTLTSLRSVNDFSG | 0.948 ± 0.65 |
| FSCKSAPQFCRWG | 0.718 ± 0.42 |

| Substance | amyloid nucleation score |
| --- | --- |
| FSFGIVSVMGYVLYRRRPWA | 1.08 ± 0.63 |
| FSFLHLVGRWGLIVSNCSDV | -0.355 ± 0.64 |
| FSKAMNFRDRTSSQSQ | -0.581 ± 1.2 |
| FSLFDGMVLVNS | -0.281 ± 0.39 |
| FSSWQGMGKQYWPERIRCAD | 0.425 ± 0.46 |
| FSWADLDRYCISLQNQGPLA | 0.66 ± 0.42 |
| FSYTDNSTRFVTFQLRNIPA | 0.598 ± 0.33 |
| FTAVK | -0.188 ± 0.46 |
| FTCFAK | 1.14 ± 0.52 |
| FTCKWRVGFWTPVSDPV | -1.27 ± 0.7 |
| FTFEFVNHMASVYRSLMYER | -0.356 ± 1.1 |
| FTKGNYCSGLLGSSSRWTPF | 0.926 ± 0.74 |
| FTLMGNSCHRGLV | -0.66 ± 0.85 |
| FTNASDYYELVLHCRGAEKE | 0.523 ± 0.3 |
| FTQKIFQTFFDHAYNWFSRV | 0.918 ± 0.46 |
| FTRGDICLYLFCELFRPVNC | 2.29 ± 0.22 |
| FTSAASQFRVMSGQSNSKYP | -1.2 ± 2.4 |
| FTSVITLMFNYNTFWKKSSY | 1.12 ± 0.27 |
| FTVLWCRSMLGC | -0.111 ± 0.4 |
| FTVVWGHQVYVMTSPFSSAG | 5.76 ± 0.062 |
| FVKRF | 0.073 ± 0.4 |
| FVLHCCRLRGHTSSSHWLGA | 0.245 ± 0.43 |
| FVLLELVSVVRVLHYDGIWD | 0.079 ± 0.51 |
| FVLLRIRHRFFWGSCLNPFQ | 1.12 ± 0.26 |
| FVLQWRNIRVVDLRMRPYPK | 0.508 ± 0.28 |
| FVMLFRFRVVCRFV | inactive |

| Substance | amyloid nucleation score |
| --- | --- |
| FVSGVFGYRMYDPRRVWLSL | -0.178 ± 0.7 |
| FVVRCDYVVLTLDSGDRSYV | 3.37 ± 0.071 |
| FVVVHRSASGPEIQFLKGGR | -0.684 ± 0.4 |
| FVYNTSFLYSVCNNWAKRSP | 7.758 ± 0.053 |
| FWIDLGMTLGTCRSFLSLRS | 0.217 ± 0.6 |
| FWIWVCSDLLLD | 0.423 ± 0.43 |
| FWLFSGLCNRFNTGYDFLKS | 1.12 ± 0.48 |
| FWLLS | -0.153 ± 1 |
| FWRGDRLVMSFEE | -0.285 ± 0.83 |
| FWRMTFQRHEKLSHQ | -0.28 ± 0.38 |
| FWSVYKT | 0.744 ± 0.27 |
| FWVFLTRKLCYSHGRVLALV | -0.708 ± 1.1 |
| FYGQRPKMLCPTRAEDLTKA | -0.269 ± 0.88 |
| FYIVIDYFRNCAG | 0.005 ± 0.38 |
| FYPRM | 0.781 ± 0.54 |
| FYRFDQRNLEDVGGGMYGSS | 0.3 ± 0.83 |
| FYTAYCGLALRLVTTQPCMS | -0.001 ± 0.49 |
| FYVANVACSCAFMLPITNVR | -0.461 ± 0.73 |
| GAFAFQKL | 0.358 ± 1.1 |
| GAFEDEVVLLTHTL | -0.447 ± 1.1 |
| GANKTWCYKSSQCVISDGLG | -0.103 ± 0.66 |
| GARYNASDRGEASYLIEHCG | -0.531 ± 0.99 |
| GARYVLYMLT | -0.85 ± 0.88 |
| GATIIKSFLDRNSTTWLSLV | -0.451 ± 0.63 |
| GAVICICCIIIGKYC | 3.74 ± 0.082 |
| GAYNWVF | -0.107 ± 0.55 |

| Substance | amyloid nucleation score |
| --- | --- |
| GCDTQLQMGLFMSYIMNTSV | -0.621 ± 1.1 |
| GCLFICSMRELYKSASSTMR | 0.141 ± 0.48 |
| GCLNDCGSLVWYGVCKSCLP | 0.446 ± 0.6 |
| GCSVWDCWGLRVRSVGRSDR | 0.449 ± 0.34 |
| GCVGGWSVEFITLGYWSQRG | 1.17 ± 0.88 |
| GCYQYWCRSFHVGEIPVP | -0.003 ± 1.1 |
| GDCFFQSYDTVFNFASR | 2.24 ± 0.2 |
| GDFKTRLFSCLDSRLILGRG | -0.485 ± 1.5 |
| GDIALS | -0.292 ± 0.41 |
| GDNACLLSSIEDALDSVQVL | 0.99 ± 0.67 |
| GDTYHNYVWRLDACSTLPWY | -0.547 ± 0.53 |
| GDVFVYSDDWGDGVNGSGGR | -1.96 ± 2.4 |
| GENYLGCLGSFWKTSNTCCP | -0.881 ± 1.4 |
| GETRVLHDKVGRKFGLCKDF | 0.32 ± 0.41 |
| GFAWYDYMLQYIVVLVGLYN | -0.159 ± 1.4 |
| GFECSCKYHDFTGSALCNTL | 0.613 ± 0.36 |
| GFFFVFHYSGTHGLICCYTL | -0.22 ± 0.41 |
| GFGMFATTGKVLSMRAFQ | 0.025 ± 0.59 |
| GFGPTIYSFRSSGQGNGLMP | -0.3 ± 0.27 |
| GFGSRRYFRAVLSCPR | 0.852 ± 0.93 |
| GFLTSSIYRSLAVQLNQSWW | 0.078 ± 0.32 |
| GFMIICN | -0.405 ± 0.88 |
| GFRRGPVSSSV | 0.206 ± 0.67 |
| GFSKMLLAIVSIQDKGSWDA | 2.41 ± 0.17 |
| GFSVLCRSRPQGSTGVQIRV | -0.788 ± 0.86 |
| GFVILDSNPLRFNCFWVDAF | 0.325 ± 0.29 |

| Substance | amyloid nucleation score |
| --- | --- |
| GFYDRYVNAGMECAGPSSQR | 5.24 ± 0.079 |
| GGALSCVRDF | 1.39 ± 0.78 |
| GGCRIYLSSRM | -0.583 ± 0.46 |
| GGDGVKVVIGLHGWFASGYL | 1.24 ± 0.3 |
| GGDSQCVLTGFWYCSTWGKG | 6.438 ± 0.056 |
| GGFWPICYWNLRASEPLQDS | 0.173 ± 0.63 |
| GGGGNVGGFFMWCSVYSAGV | -0.105 ± 0.96 |
| GGKAIIQCLEW | -0.362 ± 1.2 |
| GGKVGREQTIW | -0.123 ± 0.89 |
| GGLGRYWTTHE | 0.436 ± 0.83 |
| GGLPGNRSYRGWSSIFACLR | 0.021 ± 0.49 |
| GGQRWELLFLTRGPGRRWQG | 0.2 ± 1.2 |
| GGSLVSGSFDKYSYSKYRLW | -0.128 ± 1.4 |
| GGTYPPLDISDFNW | -0.616 ± 0.27 |
| GHGALSCMMNFHSTGGKVKS | 0.667 ± 0.68 |
| GHIDAQWPRFRCHMA | 0.147 ± 0.32 |
| GHNINFGVDCGTVGRFCNTW | -0.54 ± 0.61 |
| GHSDFYTTPLKLCRGE | 0.634 ± 0.72 |
| GHWDTVGIR | -0.292 ± 0.28 |
| GHYVDLKSLYPPMTCAMACM | -0.125 ± 0.38 |
| GIAAYNGDLWMRLCYL | -0.255 ± 0.88 |
| GIAVHGMLDRMVSRRGLRAW | 0.387 ± 0.97 |
| GIFNYWRYYMVDV | 0.673 ± 0.29 |
| GIGVKSEGHVINDFYKLRER | 0.002 ± 0.45 |

— the supplement of paper PMC12042874
